Measured values as given in paper PMC2213610 (The Journal of Cell Biology, 2008).
Residue numbers refer to the chain shown, from its start.

B1: VASP peptide F2 (peptide)
peptide: PPAGGPPPPPGPPPP
B2: VASP peptide F8 with P172 changed to alanine (peptide)
peptide: PAPPGPPPPPGPPPP
B3: VASP peptide F8 (peptide)
peptide: PPPPGPPPPPGPPPP
B4: VASP peptide F8 with P183 changed to alanine (peptide)
peptide: PPPPGPPPPPGPAPP
B5: VASP peptide F8 with P182 changed to alanine (peptide)
peptide: PPPPGPPPPPGAPPP
B6: VASP peptide F8 with P174 changed to alanine (peptide)
peptide: PPPAGPPPPPGPPPP
B7: VASP peptide F8 with G175 changed to alanine (peptide)
peptide: PPPPAPPPPPGPPPP
B8: VASP peptide F8 with P171 changed to alanine (peptide)
peptide: APPPGPPPPPGPPPP
B9: VASP peptide F8 with P173 changed to alanine (peptide)
peptide: PPAPGPPPPPGPPPP
B10: VASP peptide F8 with G181 changed to alanine (peptide)
peptide: PPPPGPPPPPAPPPP
B11: VASP peptide F8 with P184 changed to alanine (peptide)
peptide: PPPPGPPPPPGPPAP
B12: His6-VASP-AAA (natural protein)
chain: MSETVICSSRATVMLYDDGNKRWLPAGTGPQAFSRVQIYHNPTANSFRVVGRKMQPDQQVVINCAIVRGVKYNQATPNFHQWRDARQVWGLNFGSKEDAAQFAAGMASALEALEGGGPPPPPALPTWSVPNGPSPEEVEQQKRQQPGPSEHIERRVANAGGPPAPPAGGPPPPPGPPPPPGPPPPPGLPPSGVPAAAHGAGGGPPPAPPLPAAQGPGGGGAGAPGLAAAIAGAKLRKVAKQEEASGGPTAPKAESGRSGGGGLMEEMNAMLARRRKAAQVGEKTPKDESANQEEPEARVPAQSESVRRPWEKNSTTLPRMKSSSSVTTSETQPCTPSSSDYSDLQRVKQELLEEVKKELQKVKEEIIEAFVQELRKRGSP
B13: His6-VASP-AAE, purified recombinant (natural protein)
chain: B12 chain with A278E
B14: His6-VASP-ADA, purified recombinant (natural protein)
chain: B12 chain with A239D
B15: VASP peptide F8 with P185 changed to alanine (peptide)
peptide: PPPPGPPPPPGPPPA

Columns and labels:
GST-SPCN_SH3 [1] = target: T1, GST-SPCN_SH3 (UniProt Q13813 970-1025); experiment: peptide or protein array
GST-SPCN_SH3 [2] = target: T1, GST-SPCN_SH3; experiment: pull-down

Binder | binding result (GST-SPCN_SH3 [1]) | binding result (GST-SPCN_SH3 [2])
B1 | binds | –
B2 | binds | –
B3 | binds | –
B4 | binds | –
B5 | binds | –
B6 | binds | –
B7 | binds | –
B8 | binds | –
B9 | binds | –
B10 | binds | –
B11 | binds | –
B12 | – | binds
B13 | – | binds
B14 | – | binds
B15 | binds | –
